According to patent US20150344570A1 (published 2015):

T1: FcγRIIa R (FcγRIIa allotype with Arg at position 131), extracellular domain with C-terminal His tag (human, UniProt P12318 34-217)
T1 construct: extracellular domain; made in FreeStyle293 cells; analyte in the Biacore assay; also called FcγRIIa type R; 2aR
T1 sequence (looked up): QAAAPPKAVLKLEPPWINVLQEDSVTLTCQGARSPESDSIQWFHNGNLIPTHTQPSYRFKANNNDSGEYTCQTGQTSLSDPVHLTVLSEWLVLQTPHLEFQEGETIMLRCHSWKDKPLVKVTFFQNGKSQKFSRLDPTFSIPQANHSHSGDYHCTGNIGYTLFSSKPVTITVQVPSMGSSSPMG

T2: FcγRIIb, extracellular domain with C-terminal His tag (human, UniProt P31994 43-217)
T2 construct: extracellular domain; made in FreeStyle293 cells; analyte in the Biacore assay; also called 2b; FcgRIIb
T2 sequence (looked up): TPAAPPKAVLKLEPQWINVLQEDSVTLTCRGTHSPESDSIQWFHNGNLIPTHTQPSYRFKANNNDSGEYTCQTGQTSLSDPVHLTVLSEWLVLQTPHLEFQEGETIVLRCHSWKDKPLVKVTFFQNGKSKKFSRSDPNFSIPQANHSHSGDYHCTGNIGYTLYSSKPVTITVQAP

T3: FcγRIIb, extracellular domain with C-terminal His tag (human, UniProt P31994 43-217)
T3 construct: extracellular domain; also called 2b; FcgRIIb; not shown: His tag at the C terminus
T3 sequence (looked up): T2 sequence (looked up)

B1: GpH7-A5/GpH7-B3 variant N325_15Y/GpL16-k0 (antibody, human IgG1, kappa)
heavy 1: not shown
heavy 2: not shown
light: DIVMTQSPLSLPVTPGEPASISCQASESLVHSNRNTYLHWYLQKPGQSPQLLIYKVSNRFSGVPDRFSGSGSGTDFTLKISRVEAEDVGVYYCSQNTHVPPTFGQGTKVEIERTVAAPSVFIFPPSDEQLKSGTASVVCLLNNFYPREAKVQWKVDNALQSGNSQESVTEQDSKDSTYSLSSTLTLSKADYEKHKVYACEVTHQGLSSPVTKSFNRGEC
notes: heterodimerized IgG1, mutation in one H chain only; also called He Ab
B2: GpH7-A5/GpH7-B3 variant S337_03V/GpL16-k0 (antibody, human IgG1, kappa)
heavy 1: not shown
heavy 2: not shown
light: B1 light
notes: as for B1
B3: GpH7-A5/GpH7-B3 variant Y296_16H/GpL16-k0 (antibody, human IgG1, kappa)
heavy 1: not shown
heavy 2: not shown
light: B1 light
notes: as for B1
B4: GpH7-A5/GpH7-B3 variant T335_01G/GpL16-k0 (antibody, human IgG1, kappa)
heavy 1: not shown
heavy 2: not shown
light: B1 light
notes: as for B1
B5: GpH7-A5/GpH7-B3 variant P331_09D/GpL16-k0 (antibody, human IgG1, kappa)
heavy 1: not shown
heavy 2: not shown
light: B1 light
notes: as for B1
B6: GpH7-A5/GpH7-B3 variant Y296_09D/GpL16-k0 (antibody, human IgG1, kappa)
heavy 1: not shown
heavy 2: not shown
light: B1 light
notes: as for B1
B7: GpH7-A5/GpH7-B3 variant Y296_07I/GpL16-k0 (antibody, human IgG1, kappa)
heavy 1: not shown
heavy 2: not shown
light: B1 light
notes: as for B1
B8: GpH7-A5/GpH7-B3 variant S337_04F/GpL16-k0 (antibody, human IgG1, kappa)
heavy 1: not shown
heavy 2: not shown
light: B1 light
notes: as for B1
B9: GpH7-A5/GpH7-B3 variant S337_19Q/GpL16-k0 (antibody, human IgG1, kappa)
heavy 1: not shown
heavy 2: not shown
light: B1 light
notes: as for B1
B10: GpH7-A5/GpH7-B3 variant Y300_18N/GpL16-k0 (antibody, human IgG1, kappa)
heavy 1: not shown
heavy 2: not shown
light: B1 light
notes: as for B1
B11: GpH7-A5/GpH7-B3 variant T335_12R/GpL16-k0 (antibody, human IgG1, kappa)
heavy 1: not shown
heavy 2: not shown
light: B1 light
notes: as for B1
B12: GpH7-A5/GpH7-B3 variant Y296_10E/GpL16-k0 (antibody, human IgG1, kappa)
heavy 1: not shown
heavy 2: not shown
light: B1 light
notes: as for B1
B13: GpH7-A5/GpH7-B3 variant Y296_18N/GpL16-k0 (antibody, human IgG1, kappa)
heavy 1: not shown
heavy 2: not shown
light: B1 light
notes: as for B1
B14: GpH7-A5/GpH7-B3 variant P331_08L/GpL16-k0 (antibody, human IgG1, kappa)
heavy 1: not shown
heavy 2: not shown
light: B1 light
notes: as for B1
B15: GpH7-A5/GpH7-B3 variant Y296_14T/GpL16-k0 (antibody, human IgG1, kappa)
heavy 1: not shown
heavy 2: not shown
light: B1 light
notes: as for B1
B16: GpH7-A5/GpH7-B3 variant Y296_06M/GpL16-k0 (antibody, human IgG1, kappa)
heavy 1: not shown
heavy 2: not shown
light: B1 light
notes: as for B1
B17: GpH7-A5/GpH7-B3 variant P331_13S/GpL16-k0 (antibody, human IgG1, kappa)
heavy 1: not shown
heavy 2: not shown
light: B1 light
notes: as for B1
B18: GpH7-A5/GpH7-B3 variant S337_06M/GpL16-k0 (antibody, human IgG1, kappa)
heavy 1: not shown
heavy 2: not shown
light: B1 light
notes: as for B1
B19: GpH7-A5/GpH7-B3 variant Y300_04F/GpL16-k0 (antibody, human IgG1, kappa)
heavy 1: not shown
heavy 2: not shown
light: B1 light
notes: as for B1
B20: GpH7-A5/GpH7-B3 variant P331_18N/GpL16-k0 (antibody, human IgG1, kappa)
heavy 1: not shown
heavy 2: not shown
light: B1 light
notes: as for B1
B21: GpH7-A5/GpH7-B3 variant S337_02A/GpL16-k0 (antibody, human IgG1, kappa)
heavy 1: not shown
heavy 2: not shown
light: B1 light
notes: as for B1
B22: GpH7-A5/GpH7-B3 variant S337_11K/GpL16-k0 (antibody, human IgG1, kappa)
heavy 1: not shown
heavy 2: not shown
light: B1 light
notes: as for B1
B23: GpH7-A5/GpH7-B3 variant T335_05P/GpL16-k0 (antibody, human IgG1, kappa)
heavy 1: not shown
heavy 2: not shown
light: B1 light
notes: as for B1
B24: GpH7-A5/GpH7-B3 variant T335_02A/GpL16-k0 (antibody, human IgG1, kappa)
heavy 1: not shown
heavy 2: not shown
light: B1 light
notes: as for B1
B25: GpH7-A5/GpH7-B3 variant P331_14T/GpL16-k0 (antibody, human IgG1, kappa)
heavy 1: not shown
heavy 2: not shown
light: B1 light
notes: as for B1
B26: GpH7-A5/GpH7-B3 variant S324_04F/GpL16-k0 (antibody, human IgG1, kappa)
heavy 1: not shown
heavy 2: not shown
light: B1 light
notes: as for B1
B27: GpH7-A5/GpH7-B3 variant Q295_06M/GpL16-k0 (antibody, human IgG1, kappa)
heavy 1: not shown
heavy 2: not shown
light: B1 light
notes: as for B1
B28: GpH7-A5/GpH7-B3 variant P331_02A/GpL16-k0 (antibody, human IgG1, kappa)
heavy 1: not shown
heavy 2: not shown
light: B1 light
notes: as for B1
B29: GpH7-A5/GpH7-B3 variant S337_12R/GpL16-k0 (antibody, human IgG1, kappa)
heavy 1: not shown
heavy 2: not shown
light: B1 light
notes: as for B1
B30: GpH7-A5/GpH7-B3 variant Y296_13S/GpL16-k0 (antibody, human IgG1, kappa)
heavy 1: not shown
heavy 2: not shown
light: B1 light
notes: as for B1
B31: GpH7-A5/GpH7-B3 variant Y296_19Q/GpL16-k0 (antibody, human IgG1, kappa)
heavy 1: not shown
heavy 2: not shown
light: B1 light
notes: as for B1
B32: GpH7-A5/GpH7-B3 variant T335_06M/GpL16-k0 (antibody, human IgG1, kappa)
heavy 1: not shown
heavy 2: not shown
light: B1 light
notes: as for B1
B33: GpH7-A5/GpH7-B3 variant Y296_04F/GpL16-k0 (antibody, human IgG1, kappa)
heavy 1: not shown
heavy 2: not shown
light: B1 light
notes: as for B1
B34: GpH7-A5/GpH7-B3 variant Q295_10E/GpL16-k0 (antibody, human IgG1, kappa)
heavy 1: not shown
heavy 2: not shown
light: B1 light
notes: as for B1
B35: GpH7-A5/GpH7-B3 variant S239_14T/GpL16-k0 (antibody, human IgG1, kappa)
heavy 1: not shown
heavy 2: not shown
light: B1 light
notes: as for B1
B36: GpH7-A5/GpH7-B3 variant S267_12R/GpL16-k0 (antibody, human IgG1, kappa)
heavy 1: not shown
heavy 2: not shown
light: B1 light
notes: He Ab; alteration in one H chain only; also called He Ab
B37: GpH7-A5/GpH7-B3 variant S267_11K/GpL16-k0 (antibody, human IgG1, kappa)
heavy 1: not shown
heavy 2: not shown
light: B1 light
notes: as for B36

target: T1, FcγRIIa R (FcγRIIa allotype with Arg at …); assay: SPR (Biacore), antibody captured, FcγR analyte; vs GpH7-A5/GpH7-B3/GpL16-k0 = 100
Method: (§1) The heterodimerized antibodies He Abs in which one of the H chains was introduced with an alteration were assayed for their binding activities to each activating FcγR and inhibitory FcγR according to the method described in Example 4. […] The activating FcγRs in FIGS. 26, 27, 28, and 29 are FcγRIa, FcγRIIa (R), FcγRIIa (H), and FcγRIIIa, respectively.
(§2) Analysis of interaction between objective antibody and the FcγR was carried out using Biacore T100 (GE Healthcare). HBS-EP+ (GE Healthcare) was used as the running buffer, and the measurement temperature was set to 25° C. Chips produced by immobilizing the antigen peptide by the amine coupling method to a Series S Sencor Chip CM5 (GE Healthcare), or alternatively, chips produced by allowing preliminarily biotinylated antigen peptides to interact with and immobilize onto a Series S Sensor Chip SA (certified) (GE Healthcare) were used. Antibodies of interest were captured onto an antigen peptide-immobilized chip, and allowed to interact to each FcγR diluted with running buffer. To regenerate and repeatedly use the chip, the antibodies captured on the chip were washed off by reacting 10 mM glycine-HCl, pH 1.5.

Binder	He/Con_2aR
B1	101 relative (HeCon Ab = 100)
B2	106 relative (HeCon Ab = 100)
B3	105 relative (HeCon Ab = 100)
B4	104 relative (HeCon Ab = 100)
B5	102 relative (HeCon Ab = 100)
B6	106 relative (HeCon Ab = 100)
B7	101 relative (HeCon Ab = 100)
B8	105 relative (HeCon Ab = 100)
B9	106 relative (HeCon Ab = 100)
B10	100 relative (HeCon Ab = 100)
B11	100 relative (HeCon Ab = 100)
B12	103 relative (HeCon Ab = 100)
B13	104 relative (HeCon Ab = 100)
B14	102 relative (HeCon Ab = 100)
B15	103 relative (HeCon Ab = 100)
B16	101 relative (HeCon Ab = 100)
B17	105 relative (HeCon Ab = 100)
B18	105 relative (HeCon Ab = 100)

Binder	He/Con_2aR
B19	108 relative (HeCon Ab = 100)
B20	105 relative (HeCon Ab = 100)
B21	105 relative (HeCon Ab = 100)
B22	103 relative (HeCon Ab = 100)
B23	104 relative (HeCon Ab = 100)
B24	102 relative (HeCon Ab = 100)
B25	104 relative (HeCon Ab = 100)
B26	104 relative (HeCon Ab = 100)
B27	102 relative (HeCon Ab = 100)
B28	106 relative (HeCon Ab = 100)
B29	107 relative (HeCon Ab = 100)
B30	102 relative (HeCon Ab = 100)
B31	102 relative (HeCon Ab = 100)
B32	105 relative (HeCon Ab = 100)
B33	109 relative (HeCon Ab = 100)
B34	102 relative (HeCon Ab = 100)
B35	103 relative (HeCon Ab = 100)

target: T2, FcγRIIb, extracellular domain with …; assay: as above
Method: as §1, §2

Binder	He/Con_2b
B1	99.5 relative (HeCon Ab = 100)
B2	98.9 relative (HeCon Ab = 100)
B3	92.2 relative (HeCon Ab = 100)
B4	96.7 relative (HeCon Ab = 100)
B5	94.3 relative (HeCon Ab = 100)
B6	98.9 relative (HeCon Ab = 100)
B7	84.3 relative (HeCon Ab = 100)
B8	97.8 relative (HeCon Ab = 100)
B9	99.7 relative (HeCon Ab = 100)
B10	82.7 relative (HeCon Ab = 100)
B11	91.9 relative (HeCon Ab = 100)
B12	98 relative (HeCon Ab = 100)
B13	91.5 relative (HeCon Ab = 100)
B14	95.7 relative (HeCon Ab = 100)
B15	88.2 relative (HeCon Ab = 100)
B16	87.8 relative (HeCon Ab = 100)
B17	96.8 relative (HeCon Ab = 100)
B18	96.7 relative (HeCon Ab = 100)

Binder	He/Con_2b
B19	94.8 relative (HeCon Ab = 100)
B20	99.2 relative (HeCon Ab = 100)
B21	97.2 relative (HeCon Ab = 100)
B22	94.3 relative (HeCon Ab = 100)
B23	99.9 relative (HeCon Ab = 100)
B24	94 relative (HeCon Ab = 100)
B25	99.8 relative (HeCon Ab = 100)
B26	89.1 relative (HeCon Ab = 100)
B27	90.4 relative (HeCon Ab = 100)
B28	99.5 relative (HeCon Ab = 100)
B29	99.5 relative (HeCon Ab = 100)
B30	86.3 relative (HeCon Ab = 100)
B31	89.3 relative (HeCon Ab = 100)
B32	99.4 relative (HeCon Ab = 100)
B33	99.2 relative (HeCon Ab = 100)
B34	94.8 relative (HeCon Ab = 100)
B35	97.3 relative (HeCon Ab = 100)

target: T3, FcγRIIb, extracellular domain with …; assay: SPR (Biacore), relative binding, GpH7-A5/GpH7-B3/GpL16-k0 = 100

Binder	He/Con_2b
B36	11.3 % of control
B37	12.2 % of control
